Measured values: publication PMC4568377
Several values for one entry are separate records, joined by “and”; a condition that tells them apart may be missing. Identical values can stand only once.

How the values were obtained:
AKAP7γ-EGFP (human) = test: photon counting histogram analysis (fluorescence fluctuation); AKAP7γ-EGFP in live HEK-293 cells, cytoplasm; two-component global fit with brightness constrained to monomeric and tandem EGFP; apparent Kd, monomer to dimer; 75 measurements from 5 cells
[1] = target: His/S-tagged AKAP7γ (human); test: SPR; Biacore T100; AKAP7γ or AKAP7α amine-coupled to a CM5 chip (150 RU) in separate flow chambers; analytes AKAP7γ or AKAP7α 12.5–200 nM in HBS (10 mM Hepes pH 7.4, 150 mM NaCl, 0.005% Surfactant P20), 30 μL/min, 300 s; heterogeneous analyte model

Kd (AKAP7γ-EGFP (human))	percent of the particles detected that are dimer (AKAP7γ-EGFP (human)) [%]	percent of the protein in the dimeric form (AKAP7γ-EGFP (human)) [%]	stoichiometry N (AKAP7γ-EGFP (human))	KD, site 1 (heterogeneous analyte model) [1] [nM]	KD, site 2 (heterogeneous analyte model) [1] [nM]	Substance
78.8 to 126 nM and 98.4 nM	20	28.7	2	–	–	AKAP7γ-EGFP (natural protein)
–	–	–	–	0.537	79.7	His/S-tagged AKAP7γ (natural protein)
